One experiment relates to CGRP receptor. As to conditions: versus CGRP(27–37); cited from earlier work. The text has this: The mutational strategies for developing high-affinity sCT peptide fragments came from the systemic report on CGRP and its high-affinity analogs. […] This supports the idea that applying affinity-enhancing mutations to the cor ...
A further experiment deals with T1, FITC-labeled sCT(22–32) (salmon, SMILES …).
T1 construct: salmon calcitonin (sCT), residues 22-32; numbers count on: the mature 32-residue hormone; peptide probe of the FP assay with the CTR ECD; also called FITC-sCT(22–32); source: synthetic peptide (Genscript, HPLC-purified)
T1 peptide: {FITC-Ahx}-YPRTNTGSGTP-NH2
Briefly: fluorescence polarisation; saturation binding: FITC-labeled peptide probe (10 nM) with rising receptor ECD concentrations; receptor ECD concentration at half of the maximal anisotropy. The settings on record: both partners purified.

For experiment [1], the target named is T2, RAMP1-CTR ECD fusion protein (hRAMP1.24–111-(GSA)3-hCTR.34–141-H6) (human, UniProt O60894 24-111; P30988 34-141).
T2 construct: human receptor activity-modifying protein 1 (RAMP1), extracellular domain, residues 24-111; linker, printed as (GSA)3; human calcitonin receptor (CTR), extracellular domain, residues 34-141; Secreted from a pHLsec-based vector; also called AMY receptor 1 ECD; RAMP1 ECD-CTR ECD fusion; source: HEK293T, transiently transfected, secreted to cell culture media, purified (IMAC, SEC)
T2 chain: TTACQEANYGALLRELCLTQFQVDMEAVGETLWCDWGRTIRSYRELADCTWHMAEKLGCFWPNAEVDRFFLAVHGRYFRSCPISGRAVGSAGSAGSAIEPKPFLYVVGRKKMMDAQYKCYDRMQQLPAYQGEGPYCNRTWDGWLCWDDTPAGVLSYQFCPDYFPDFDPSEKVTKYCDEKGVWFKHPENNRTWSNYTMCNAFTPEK
Briefly: fluorescence polarisation; competition binding, full curves: FITC-AC413(6–25) Y25P probe 10 nM, RAMP1-CTR ECD 77 nM, RAMP2-CTR ECD 67 nM or RAMP3-CTR ECD 252 nM, competitive peptide at multiple concentrations, all in solution; KI from non-linear regression of anisotropy. As to conditions: both partners purified. (In general: Fluorescence polarisation rises when a labelled molecule tumbles more slowly, as on binding a larger partner.)

The target in experiment [2] is T3, RAMP3-CTR ECD fusion protein (hRAMP3.25–112-(GSA)3-hCTR.34–141-H6) (human, UniProt O60896 25-112; P30988 34-141).
T3 construct: human receptor activity-modifying protein 3 (RAMP3), extracellular domain, residues 25-112; linker, printed as (GSA)3; human calcitonin receptor (CTR), extracellular domain, residues 34-141; Secreted from a pHLsec-based vector; also called AMY receptor 3 ECD; RAMP3 ECD-CTR ECD fusion protein; source: HEK293S GnTI-, transiently transfected (PEI), secreted to cell culture media, purified (IMAC, SEC)
T3 chain: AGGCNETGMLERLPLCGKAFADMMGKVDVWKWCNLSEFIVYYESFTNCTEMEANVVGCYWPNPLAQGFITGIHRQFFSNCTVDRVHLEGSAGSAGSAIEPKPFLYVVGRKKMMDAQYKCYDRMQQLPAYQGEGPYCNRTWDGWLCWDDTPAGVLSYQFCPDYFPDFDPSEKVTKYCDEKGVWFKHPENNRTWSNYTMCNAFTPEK
The experiment is described as above. As to conditions: both partners purified.

Experiment [3] deals with T4, RAMP2-CTR ECD fusion protein (hRAMP2.55–140-(GSA)3-hCTR.34–141-H6) (human, UniProt O60895 55-140; P30988 34-141).
T4 construct: human receptor activity-modifying protein 2 (RAMP2), extracellular domain, residues 55-140; linker, printed as (GSA)3; human calcitonin receptor (CTR), extracellular domain, residues 34-141; Secreted from a pHLsec-based vector; also called AMY receptor 2 ECD; RAMP2 ECD-CTR ECD fusion; source: HEK293T, transiently transfected, secreted to cell culture media, purified (IMAC, SEC)
T4 chain: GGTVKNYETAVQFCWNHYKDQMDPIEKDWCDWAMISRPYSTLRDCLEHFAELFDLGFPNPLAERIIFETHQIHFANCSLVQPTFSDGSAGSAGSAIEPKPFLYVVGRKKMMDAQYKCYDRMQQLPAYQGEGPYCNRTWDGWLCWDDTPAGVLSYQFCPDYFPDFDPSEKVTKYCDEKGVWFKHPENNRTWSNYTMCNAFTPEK
Described as above. As to conditions: both partners purified.

The star is where a group is joined. FITC = O=C1OC2(c3ccc(O)cc3Oc3cc(O)ccc32)c2ccc(NC(=S)*)cc21; Ahx = NCCCCCC(=O)O

The values that follow come from paper PMC8466238, “Development of High Affinity Calcitonin Analog Fragments Targeting Extracellular Domains of Calcitonin Family Receptors” (Biomolecules, 2021).

As to “CGRPmut: human alpha CGRP(27–37) with N31D, S34P, and K35F mutations”, in the experiment with CGRP receptor, the “increase in CGRP affinity for its receptor” value is given as 100 fold.

B1: calcitonin receptor extracellular domain (hCTR.34–141-H6) (receptor, human, UniProt P30988 34-141, looked up)
chain: IEPKPFLYVVGRKKMMDAQYKCYDRMQQLPAYQGEGPYCNRTWDGWLCWDDTPAGVLSYQFCPDYFPDFDPSEKVTKYCDEKGVWFKHPENNRTWSNYTMCNAFTPEK
notes: human calcitonin receptor (CTR), extracellular domain, residues 34-141; Secreted from a pHLsec-based vector; also called CTR ECD; purified CTR ECD; source: HEK293T, transiently transfected, secreted to cell culture media, purified (IMAC, SEC)
Regarding B1, the “receptor ECD concentration that produced a half of the maximal anisotropy with the peptide probe” value in the experiment with FITC-labeled sCT(22–32) was found to be 500 nM.

B2: FITC-labeled AC413(6–25) with Y25P mutation (peptide)
peptide: {FITC-Ahx}-ANFLVRLQTYPRTNVGANTP-NH2
SMILES: CC(C)C[C@H](NC(=O)[C@H](CCCNC(=N)N)NC(=O)[C@@H](NC(=O)[C@H](CC(C)C)NC(=O)[C@H](Cc1ccccc1)NC(=O)[C@H](CC(N)=O)NC(=O)[C@H](C)NC(=O)CCCCCNC(=S)Nc1ccc2c(c1)C(=O)OC21c2ccc(O)cc2Oc2cc(O)ccc21)C(C)C)C(=O)N[C@@H](CCC(N)=O)C(=O)N[C@H](C(=O)N[C@@H](Cc1ccc(O)cc1)C(=O)N1CCC[C@H]1C(=O)N[C@@H](CCCNC(=N)N)C(=O)N[C@H](C(=O)N[C@@H](CC(N)=O)C(=O)N[C@H](C(=O)NCC(=O)N[C@@H](C)C(=O)N[C@@H](CC(N)=O)C(=O)N[C@H](C(=O)N1CCC[C@H]1C(N)=O)[C@@H](C)O)C(C)C)[C@@H](C)O)[C@@H](C)O
notes: residues 6-25 of AC413, an antagonistic amylin peptide analog, with Y25P; peptide probe of the FP assay with the AMY receptor ECDs; also called FITC-AC413(6–25) Y25P; source: synthetic peptide (Genscript, HPLC-purified)
On to B2, for which the binding result in experiment [1], in experiment [2] and in experiment [3] was “binds” throughout.
